# According to the RNAGym collection of RNA variant scans (doi:10.7554/elife.80360):
# B1: Twister Ribozyme (parent)
# chain: AACACUGCCAAUGCCGGUCCCAAGCCCGGAUAAAAGUGGAGGGGGCGG
# Variants of: B1
# Assay: self-cleavage, relative activity (ratio to wild type); higher = more cleavage; co-transcriptional
row,Variant,self-cleavage
1,AACACUGCCACUGCCGGUCCCAAGCCCGGAUAAAAGUGGAGGGGACGG,0.938
2,AACACUGCCACUGCCGGUCCCAAGCCCGGAUAAAAGUGGAGGGGCCGG,0.581
3,AACACUGCCACUGCCGGUCCCAAGCCCGGAUAACAGUGGAGGGGGCGG,0.049
4,AACACUGCCACUGCCGGUCCCAAGCCCGGAUAAUAGUGGAGGGGGCGG,0.785
5,AACACUGCCUAUGCCGGUCCCAAGCCCGGACAAAAGUGGAGGGGGCGG,0.919
6,AACACUGCCUAUGCCGGUCCCAAGCCCGGAAAAAAGUGGAGGGGGCGG,0.694
7,AACACUGCCACUGCCCGUCCCAAGCCCGGAUAAAAGUGGAGGGGGCGG,0.187
8,AACACUGCCACUGGCGGUCCCAAGCCCGGAUAAAAGUGGAGGGGGCGG,0.164
9,AACACUGCCUAUGACGGUCCCAAGCCCGGAUAAAAGUGGAGGGGGCGG,0.824
10,AACACUGCCUAUGGCGGUCCCAAGCCCGGAUAAAAGUGGAGGGGGCGG,0.244
11,AACACUGCCUAUGCCGGUCCCAAGCCCGGAUAAAAGAGGAGGGGGCGG,0.86
12,AACACUGCCUAUGCCGGUCCCAAGCCCGGAUAAAAGCGGAGGGGGCGG,0.667
13,AACACUGCCACUGCCGGUCCCAAGCCCGGAUCAAAGUGGAGGGGGCGG,0.769
14,AACACUGCCACUGCCGGUCCCAAGCCCGGAUUAAAGUGGAGGGGGCGG,0.831
15,AACACUGCCUAUUCCGGUCCCAAGCCCGGAUAAAAGUGGAGGGGGCGG,0.489
16,AACACUGCCACUGCCGGUCCCAAGCCCGGAUAGAAGUGGAGGGGGCGG,0.893
17,AACACUGCCACUGCCGGUCCCAAGCCCGGAUACAAGUGGAGGGGGCGG,0.724
18,AACACUGCCUAGGCCGGUCCCAAGCCCGGAUAAAAGUGGAGGGGGCGG,0.759
19,AACACUGCCUACGCCGGUCCCAAGCCCGGAUAAAAGUGGAGGGGGCGG,0.931
20,AACACUGCCUAUGCCAGUCCCAAGCCCGGAUAAAAGUGGAGGGGGCGG,0.89
21,AACACUGCCUAUGCCGGUCCCAAGCCCGGAUAAGAGUGGAGGGGGCGG,0.703
22,AACACUGCCUAUGCCGGUCCCAAGCCCGGAUAACAGUGGAGGGGGCGG,0.279

row,Variant,self-cleavage
1,AACACUGCCACUGCCGGUCCCAAGCCCGGAUAAAAGUGGAGGGGGCUG,0.977
2,AACACUGCCACUGCCGGUCCCAAGCCCGGAUAAAAGUGGAGGGGGCCG,0.648
3,AACACUGCCACUGCCGGUCCCAAGCCCGGAUAAAAGUGGAGGGGGCAG,0.836
4,AACACUGCCACUGCCGGUCCCAAGCCGGGAUAAAAGUGGAGGGGGCGG,0.0803
5,AACACUGCCACUGCCGGUCCCAAGCCAGGAUAAAAGUGGAGGGGGCGG,0.176
6,AACACUGCCACUGCCGGUCCCAAGCCUGGAUAAAAGUGGAGGGGGCGG,0.352
7,AACACUGCCUAUGCCGGUCCCAAGCCCGCAUAAAAGUGGAGGGGGCGG,0.617
8,AACACUGCCUAUGCCGGUCCCAAGCCCGAAUAAAAGUGGAGGGGGCGG,1.08
9,AACACUGCCACUGCCGGUCCGAAGCCCGGAUAAAAGUGGAGGGGGCGG,0.118
10,AACACUGCCACUGCCGGUCCAAAGCCCGGAUAAAAGUGGAGGGGGCGG,0.0812
11,AACACUGCCACUGCCGGUCCUAAGCCCGGAUAAAAGUGGAGGGGGCGG,0.1
12,AACACUGCCUAUGCCGGUCCCAAGCCCGGAUAAAAGUGGAGGGGCCGG,0.707
13,AACACUGCCUAUGCCGGUACCAAGCCCGGAUAAAAGUGGAGGGGGCGG,0.331
14,AACACUGCCUAUGCCGGUGCCAAGCCCGGAUAAAAGUGGAGGGGGCGG,0.367
15,AACACUGCCUAUGCCGGUCCCAAGCCCGGAUAAAAGUGGAGGGGGCGU,0.933
16,AACACUGCCUAUGCCGGUCCCAAGCCCGGAUAAAAGUGGAGGGGGCGC,1.09
17,AACACUGCCUAUGCCGGUCCCAAGACCGGAUAAAAGUGGAGGGGGCGG,0.0757
18,AACACUGCCUAUGCCGGUCCCAAGUCCGGAUAAAAGUGGAGGGGGCGG,0.731
19,AACACUGCCACUGCCGGUCCCAAGCCCGGAUAAAAGUCGAGGGGGCGG,0.731
20,AACACUGCCACUGCCGGUCCCAAGCCCGGAUAAAAGUAGAGGGGGCGG,0.768
21,AACACUGCCACUGCCGGUCCCAAGCCCGGAUAAAAGUUGAGGGGGCGG,1.03
22,AACACUGCCUAUGCCGGUCCCAAGCCCCGAUAAAAGUGGAGGGGGCGG,0.768

row,Variant,self-cleavage
1,AACACUGCCUAUGCCGGUCCCAAGCCCAGAUAAAAGUGGAGGGGGCGG,0.885
2,AACACUGCCUAUGCCGGUCCCAAGCCCGGAUAAAACUGGAGGGGGCGG,0.711
3,AACACUGCCACUGCCGGUCCCAAGCCCGGAUAAAAGUGGAAGGGGCGG,0.336
4,AACACUGCCACUGCCGGUCCCAAGCCCGGUUAAAAGUGGAGGGGGCGG,0.959
5,AACACUGCCACUGCCGGUCCCAAGCCCAGAUAAAAGUGGAGGGGGCGG,0.656
6,AACACUGCCACUGCCGGUCCCAAGCCCUGAUAAAAGUGGAGGGGGCGG,0.563
7,AACACUGCCACUGCCGGUCCCAUGCCCGGAUAAAAGUGGAGGGGGCGG,0.149
8,AACACUGCCACUGCCGGUCCCAGGCCCGGAUAAAAGUGGAGGGGGCGG,0.249
9,AACACUGCCUAUGCCGGUCCCAAGCCAGGAUAAAAGUGGAGGGGGCGG,0.645
10,AACACUGCCUAUGCCGGUCCCAAGCCCGGAUAAAAGUCGAGGGGGCGG,0.933
11,AACACUGCCUAUGCCGGUCCCAAGCCCGGAUAAAAGUAGAGGGGGCGG,1.04
12,AACACUGCCACUGCCGGUCCCAAGCGCGGAUAAAAGUGGAGGGGGCGG,0.08
13,AACACUGCCACUGCCGGUCCCAAGCACGGAUAAAAGUGGAGGGGGCGG,0.183
14,AACACUGCCACUGCCGGUCCCAAGCCCGGAUAAAAGUGGAGGGAGCGG,0.955
15,AACACUGCCACUGCCGGUCCCAAGCCCGGAUAAAAGUGGAGGGCGCGG,0.889
16,AACACUGCCUAUGCCGGUCCAAAGCCCGGAUAAAAGUGGAGGGGGCGG,0.175
17,AACACUGCCUAUGCCGGUCCGAAGCCCGGAUAAAAGUGGAGGGGGCGG,0.126
18,AACACUGCCUAUGCCGGUCCUAAGCCCGGAUAAAAGUGGAGGGGGCGG,0.0991
19,AACACUGCCUAUGCCGGUCCCAAGCCCGGAUAAAAGUGGAAGGGGCGG,0.626
20,AACACUGCCUAUGCCGGUCCCAAGCCCGGAUAAAAGUGGAUGGGGCGG,0.61
21,AACACUGCCUAUGCCGGUCCCAAGCCCGGAUAAAAGUGGACGGGGCGG,0.239
22,AACACUGCCUAUGCCGGUCCCAAGCCCGGAUAAAAGUGGAGAGGGCGG,0.489

row,Variant,self-cleavage
1,AACACUGCCUAUGCCGGUCCCAAGCCCGGAUAAAAGUGGAGCGGGCGG,0.543
2,AACACUGCCACUGCCGGUCACAAGCCCGGAUAAAAGUGGAGGGGGCGG,0.129
3,AACACUGCCUAUGCCGGUCCCAAGCCCGGAUAAAAGUGGAGGGGGAGG,0.913
4,AACACUGCCUAUGCCGGUCCCAAGCCCGGAUAAAAGUGGAGGGGGGGG,0.857
5,AACACUGCCACUGCCGGUCCCAAGCCCGGAUAAAACUGGAGGGGGCGG,0.636
6,AACACUGCCUAUGCCGGUCCCAAGCACGGAUAAAAGUGGAGGGGGCGG,0.607
7,AACACUGCCUAUGCCGGUCCCAAGCGCGGAUAAAAGUGGAGGGGGCGG,0.264
8,AACACUGCCUAUGCCGGUCCCAAGCUCGGAUAAAAGUGGAGGGGGCGG,0.437
9,AACACUGCCACUGCCGUUCCCAAGCCCGGAUAAAAGUGGAGGGGGCGG,0.14
10,AACACUGCCACUGCCGAUCCCAAGCCCGGAUAAAAGUGGAGGGGGCGG,0.134
11,AACACUGCCACUGCCGGUCCCAAGCCCGGAUAAAAGUGGAGCGGGCGG,0.419
12,AACACUGCCUAUGCCGGUCCCAAGCCCGGAUAAAGGUGGAGGGGGCGG,0.808
13,AACACUGCCUAUGCCGGUCCCAAGCCCGGAUAAACGUGGAGGGGGCGG,1.16
14,AACACUGCCUAUGCCGGUCUCAAGCCCGGAUAAAAGUGGAGGGGGCGG,0.948
15,AACACUGCCUAUGCCGGUCACAAGCCCGGAUAAAAGUGGAGGGGGCGG,0.168
16,AACACUGCCUAUGCCGGUCGCAAGCCCGGAUAAAAGUGGAGGGGGCGG,0.131
17,AACACUGCCUAUGCCGGUCCCAAGCCCGGAUAAAAGUGGAGGAGGCGG,0.373
18,AACACUGCCUAUGCCGGUCCCAAGCCCGGAUAAAAGUGGAGGCGGCGG,0.2
19,AACACUGCCUAUGCCGGUCCCAAGCCCGGAUAAAAGUGGAGGUGGCGG,0.501
20,AACACUGCCUAUGCCGUUCCCAAGCCCGGAUAAAAGUGGAGGGGGCGG,0.302
21,AACACUGCCUAUGCCGGUCCCAAGCCCGGAUAAAAGUGGGGGGGGCGG,0.191
22,AACACUGCCACUGCCGGUCCCAAGCCCGGAUAAAAGUGGAGGCGGCGG,0.159

row,Variant,self-cleavage
1,AACACUGCCACUGCCGGUCCCAAGCCCGGAUAAAAGUGGAGGUGGCGG,0.252
2,AACACUGCCUAUGCCGGUCCCAAACCCGGAUAAAAGUGGAGGGGGCGG,0.0831
3,AACACUGCCUAUGCCGGUCCCAACCCCGGAUAAAAGUGGAGGGGGCGG,0.0965
4,AACACUGCCUAUGCCGGUCCCAAGCCCGGAUAAAAGUGGAGGGAGCGG,0.924
5,AACACUGCCACUGCCGGUACCAAGCCCGGAUAAAAGUGGAGGGGGCGG,0.136
6,AACACUGCCACUGCCGGUGCCAAGCCCGGAUAAAAGUGGAGGGGGCGG,0.138
7,AACACUGCCACUGCCGGUCCCAAGCCCGCAUAAAAGUGGAGGGGGCGG,0.668
8,AACACUGCCUAUGCCGGUCCCAAGCCCGGAUAUAAGUGGAGGGGGCGG,1.07
9,AACACUGCCUAUGCCGGUCCCAAGCCCGGAUAGAAGUGGAGGGGGCGG,0.825
10,AACACUGCCUAUGCCGGUCCCAAGCCCGGAUAAAAGUGUAGGGGGCGG,0.215
11,AACACUGCCUAUGCCGGUCCCAAGCCCGGAUAAAAGUGAAGGGGGCGG,0.531
12,AACACUGCCACAGCCGGUCCCAAGCCCGGAUAAAAGUGGAGGGGGCGG,0.907
13,AACACUGCCACCGCCGGUCCCAAGCCCGGAUAAAAGUGGAGGGGGCGG,0.79
14,AACACUGCCACGGCCGGUCCCAAGCCCGGAUAAAAGUGGAGGGGGCGG,0.971
15,AACACUGCCACUGCCGGUCCCUAGCCCGGAUAAAAGUGGAGGGGGCGG,0.58
16,AACACUGCCACUGCUGGUCCCAAGCCCGGAUAAAAGUGGAGGGGGCGG,0.545
17,AACACUGCCACUGCGGGUCCCAAGCCCGGAUAAAAGUGGAGGGGGCGG,0.0591
18,AACACUGCCACUGCCGGUCCCAAGCCCGGAUAAAUGUGGAGGGGGCGG,0.942
19,AACACUGCCACUGCCGGUCCCAAGCCCGGAUAAACGUGGAGGGGGCGG,0.886
20,AACACUGCCACUGCCGGUCCCAAGCCCGGAUAAAGGUGGAGGGGGCGG,0.574
